Laboratory results: US20230279131A1

T1: mouse IL-2Rγ expressed on cells (MC/9) (mouse) (UniProt P34902)
T1 sequence (looked up): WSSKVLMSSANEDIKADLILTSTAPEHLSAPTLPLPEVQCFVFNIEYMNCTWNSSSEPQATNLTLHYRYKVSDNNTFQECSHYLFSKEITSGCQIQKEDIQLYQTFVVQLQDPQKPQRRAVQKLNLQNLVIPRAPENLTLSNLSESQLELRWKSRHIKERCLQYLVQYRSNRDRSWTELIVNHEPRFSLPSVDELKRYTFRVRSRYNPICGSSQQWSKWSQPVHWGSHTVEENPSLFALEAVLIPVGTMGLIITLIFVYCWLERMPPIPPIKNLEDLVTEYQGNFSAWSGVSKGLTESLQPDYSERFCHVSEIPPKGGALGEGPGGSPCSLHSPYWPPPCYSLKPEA

T2: human IL-2Rγ expressed on cells (NK-92, Jurkat) (human) (UniProt P31785)
T2 sequence (looked up): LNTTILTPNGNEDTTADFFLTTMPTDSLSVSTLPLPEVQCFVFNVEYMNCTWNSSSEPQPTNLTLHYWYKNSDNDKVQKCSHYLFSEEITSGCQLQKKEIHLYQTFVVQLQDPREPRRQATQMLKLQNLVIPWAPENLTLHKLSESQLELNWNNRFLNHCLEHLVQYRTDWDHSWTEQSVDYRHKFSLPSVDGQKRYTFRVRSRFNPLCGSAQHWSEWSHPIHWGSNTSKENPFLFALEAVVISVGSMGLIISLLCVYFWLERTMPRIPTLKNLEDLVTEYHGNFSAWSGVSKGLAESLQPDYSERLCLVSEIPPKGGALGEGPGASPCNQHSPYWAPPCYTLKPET

T3: human IL2Rγ expressed on cells (human) (UniProt P31785)
T3 sequence (looked up): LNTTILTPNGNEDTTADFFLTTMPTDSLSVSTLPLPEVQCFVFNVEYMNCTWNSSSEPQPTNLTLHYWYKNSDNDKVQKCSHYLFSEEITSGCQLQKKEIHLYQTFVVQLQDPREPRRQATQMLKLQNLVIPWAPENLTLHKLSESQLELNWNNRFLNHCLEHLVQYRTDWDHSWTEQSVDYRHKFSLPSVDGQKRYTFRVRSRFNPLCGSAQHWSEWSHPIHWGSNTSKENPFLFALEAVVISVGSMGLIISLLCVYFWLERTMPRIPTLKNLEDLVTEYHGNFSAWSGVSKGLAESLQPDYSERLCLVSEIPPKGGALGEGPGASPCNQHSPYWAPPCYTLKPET


Tests used:
[1] = molecular target: Human IL2Rγ extracellular domain expressed with a C-terminal mouse IgG2a Fc tag (human); test: SPR Biacore 4000, mAb captured by anti-human Fc, 25 C
[2] = molecular target: T1, mouse IL-2Rγ expressed on cells (MC/9) (mouse); test: flow cytometry on MC/9 cells (endogenous mouse IL-2Rg), antibody 10 ug/ml
[3] = molecular target: T2, human IL-2Rγ expressed on cells (NK-92, Jurkat) (human); test: flow cytometry on NK-92 cells (endogenous human IL-2Rg), antibody 10 ug/ml
[4] = molecular target: T2, human IL-2Rγ expressed on cells (NK-92, Jurkat) (human); test: flow cytometry on Jurkat cells (endogenous human IL-2Rg), antibody 10 ug/ml
[5] = molecular target: T3, human IL2Rγ expressed on cells (human); test: cell-based or functional assay

| 100 nM Ag Bound [1] | Binding Ratio (Sample over unstained MFIs) [2] | Raw MFI [2] | Binding Ratio (Sample over unstained MFIs) [3] | Raw MFI [3] | Binding Ratio (Sample over unstained MFIs) [4] | Raw MFI [4] | EC50 [M] of ligand; NK92/hIL7R/STAT3-luc [5] | Binder |
| --- | --- | --- | --- | --- | --- | --- | --- | --- |
| 1 RU | 1 | 167 MFI | 18 | 2670 MFI | 1 | 114 MFI | – | H4H12899P (antibody, human IgG4 S228P, kappa, V domains shown) VH: QVQLVESGGDLVKPGGSLRLSCATSGFTFSDFYMTWIRQAPGKGLEWISYISNSGSIVKYADSVKGRFTISRDNAKNSLYLQMNSLRAEDTAIYYCARFYGDRWGQGTLVTVSS VL: DIQLTQSPSFLSASVGDRVTITCWASQGISTFLAWYQQKPGKAPKLLIYAASTLQSGVPSRFSGSGSGTDFTLTISSLQPEDFATYHCQQLNNYPWTFGQGTKVEIKR |
| – | 1 | 202 MFI | 44 | 6580 MFI | 6 | 507 MFI | – | H4H12874P (antibody, human IgG4 S228P, kappa, V domains shown) VH: QVQLVESGGGVVQPGRSLRLSCAASGFNFRNFGMHWVRQAPGKGLEWVAGILYDGSSKYYADSVKDRFTISRDNSKNTLFLQMNSLRAEDTAMYYCAKEEDTAMVPFDSWGPGTLVTVSS VL: DIQLTQSPSFLSASVGDRVTITCWASQGISSYLAWYQQKPGKAPTLLIYAASTLQSGVPSRFSGSGSGTEFTLTISSLQPEDFASYYCQQLKSYPLTFGGGTKVEIKR |
| 4 RU | 1 | 128 MFI | 28 | 4200 MFI | 1 | 110 MFI | – | H4H12900P (antibody, human IgG4 S228P, kappa, V domains shown) VH: QVQLVESGGGLVKPGGSLRLSCEASGFTFNDFYMTWIRQAPGKGLEWIAYISKSGDKMRYADSVKGRFSTSRDNAKNSLSLQMNSLRAEDTAVYYCARFYGDIWGQGTLVTVSS VL: DIQLTQSPSFLSASVGDRVTITCWASQDISSFLVWYQQKPGKAPNLLIYAASALQSGVPSRFSGSGSGTEFTLTISSLQPEDFASYYCEQLNNYPWTFGQGTKVEIKR |
| – | – | – | 37 | 7050 MFI | – | – | – | H4H13541P (antibody, human IgG4 S228P, kappa, V domains shown) VH: EVQLVESGGGVVRPGGSLRLSCAASGFIFDDYDMSWVRQPPGRGLEWVSGIDWFGGTRGYADSMKGRFTISRDNAKNSLYLQMNSLRVEDTAFYYCARGGAIVGAVTPFDYWGQGTLVTVSS VL: DIQMTQSPSSLSASVGNRVTLSCRASQSINTYLSWYQQRPGKAPKLLIYAASSLQSGVPSRFSGSGAGTDFTLTISSLQPEDFATYYCQQSYSAPLTFGGGTKVEIKR |
| – | 1 | 185 MFI | 87 | 13000 MFI | 13 | 1170 MFI | – | H4H12863P (antibody, human IgG4 S228P, kappa, V domains shown) VH: QVQLVESGGGVVQPGRSLRLSCTASGFTFRSYDMYWVRQAPGKGLEWVSVITYDGNNKYYADSVKGRFTISRDNSKNTLFLQMSSLRPEDTAVYYCAKRGLIWVGESFDYWGQGTLVTVSS VL: DIQMTQSPSTLSASVGDRVTITCRASQSINSWLAWYQQKPGKAPNLLIYKASSLESGVPSRFSGSGSGTEFTLTISSLQPDDFATYYCQQYKSYSWTFGQGTKVEIKR |
| – | – | – | – | – | – | – | 3.9e-11 M | human IL-7 (ligand, UniProt P13232 26-177, looked up) DCDIEGKDGKQYESVLMVSIDQLLDSMKEIGSNCLNNEFNFFKRHICDANKEGMFLFRAARKLRQFLKMNSTGDFDLHLLKVSEGTTILLNCTGQVKGRKPAALGEAQPTKSLEENKSLKEQKKLNDLCFLKRLLQEIKTCWNKILMGTKEH |
| – | 1 | 199 MFI | 2 | 228 MFI | 1 | 99 MFI | – | H4H12858P (antibody, human IgG4 S228P, kappa, V domains shown) VH: EVQLVESGGDLVQPGGSLRLSCTASGFIFRNYAMNWVRQAPGKGLEWLSGILGSNDNTYYVDSVKGRFTISRDNSRNTLYLQMNSLRAEDSAVYYCAKGDAGGFDYWGQGTLVTVSS VL: DVVMTQSPLSLPVILGQPASISCRSSQSLVSSDGNTYLNWFQQRPGQSPRRLIYKVSNRDSGVPDRFSGSGSGTDFTLKISRVEAEDVGAYYCMQGSYWPPTFGQGTKLEIKR |
| – | – | – | 1 | 235 MFI | – | – | – | H4H13538P (antibody, human IgG4 S228P, kappa, V domains shown) VH: EVQLVESGGGLVQPGGSLGLSCAASGFTFSNYAMSWVRQAPGKGLEWVSAVSGGGGGTYYADSVKGRFTISRDNSKNTVLLQMNSLRAEDTAVYYCARGRTGGLDYWGPGTLVTVSS VL: DVVMTQSPLSLPVIFGQPASISCRSSQSLVDSDGNTYLNWLQQRPGQSPRRLIYEVSNRDSGVPDRFSGSGSGTDFTLTISRVEAEDVGIYYCMQGTRWPPTFGGGTKVEIKR |
| – | 1 | 198 MFI | 37 | 5490 MFI | 1 | 103 MFI | – | H4H12857P (antibody, human IgG4 S228P, kappa, V domains shown) VH: EVQLVESGGGVVRPGGSLRLSCAASGFTFDDFDMSWVRQGPGKGLEWVSGINWHGSSTGYADSVKGRFTISRDNAKNSLYLQMSSLRAEDTALYHCVRGGTIVGATTPLDYWGQGTLVTVSS VL: DIQMTQSPSSLSASVGDRVTMTCRASRTISSYLSWYQQKSGKVPNLLIFGASSLQSGVPSRFSASGSGTDFTLIISSLQPEDFATYYCQQSYSSPLTFGGGTKVEIKR |
